# Test results published in FireProtDB (doi:10.1006/jmbi.1997.1365).
# Several values for one entry are separate records, joined by “and”; a condition that tells them apart may be missing. Equal entries are not always repeated.
# B1: Lysozyme C, P61626 (parent)
# chain: MKALIVLGLVLLSVTVQGKVFERCELARTLKRLGMDGYRGISLANWMCLAKWESGYNTRATNYNAGDRSTDYGIFQINSRYWCNDGKTPGAVNACHLSCSALLQDNIADAVACAKRVVRDPQGIRAWVAWRNRCQNRDVRQYVQGCGV
# Variants of: B1
# Conditions: Homo sapiens; pH 2.67; Thermal; DSC; glycine 0.05 M; reversible: yes; structure 1LZ1; whole UniProt chain shown
Variant,Tm [°C],heat capacity change of unfolding [kcal/mol/K],unfolding enthalpy (calorimetric) [kcal/mol],unfolding enthalpy (van 't Hoff) [kcal/mol]
I41A,56.2,1.51,98.1,103
I74A,52.3,1.53,89,91.4

# Same assay, conditions: Homo sapiens; pH 2.7; 64.9 °C; Thermal; DSC; glycine 0.05 M; reversible: yes; structure 1LZ1; whole UniProt chain shown
Variant,ddG of mutation (higher = less stable) [kcal/mol],heat capacity change of unfolding [kcal/mol/K],unfolding enthalpy (calorimetric) [kcal/mol],unfolding enthalpy (van 't Hoff) [kcal/mol]
I41A,2.54,1.2,109,116
I77A,1.72,1.46,115,121
I77G,3.83,1.24,106,110
I107A,2.7,1.65,110,113
I74A,3.71,1.34,105,111
I124A,0.93,1.34,106,112

# Same assay, conditions: Homo sapiens; pH 2.7; Thermal; DSC; glycine 0.05 M; reversible: yes; structure 1LZ1; whole UniProt chain shown
Variant,Tm,"change of melting temperature, mutant - wild type (higher = more stable) [°C]",heat capacity change of unfolding,unfolding enthalpy (calorimetric) [kcal/mol],unfolding enthalpy (van 't Hoff) [kcal/mol]
I41A,56.8 °C,-8.1,1.2 kcal/mol/K,,
I77A,59.7 °C,-5.2,1.46 kcal/mol/K,,
I77G,52 °C and 52.2 °C,-12.7,0.62 kcal/mol/K and 1.24 kcal/mol/K,90.9,92.8
I107A,56.2 °C,-8.7,1.65 kcal/mol/K,,
I124A,61.9 °C,-3,1.34 kcal/mol/K,,

# Same assay, conditions: Homo sapiens; pH 2.96; Thermal; DSC; glycine 0.05 M; reversible: yes; structure 1LZ1; whole UniProt chain shown
Variant,Tm [°C],heat capacity change of unfolding [kcal/mol/K],unfolding enthalpy (calorimetric) [kcal/mol],unfolding enthalpy (van 't Hoff) [kcal/mol]
I41A,62,1.08,105,111
I74A,58.5,1.6,96.9,102
I124A,67.4,1.17,109,114

# Same assay, conditions: Homo sapiens; pH 2.49; Thermal; DSC; glycine 0.05 M; reversible: yes; structure 1LZ1; whole UniProt chain shown
Variant,Tm [°C],heat capacity change of unfolding [kcal/mol/K],unfolding enthalpy (calorimetric) [kcal/mol],unfolding enthalpy (van 't Hoff) [kcal/mol]
I77A,55.9,0.84,101,108
I77G,48.1,0.79,84.4,89.7

# Same assay, conditions: Homo sapiens; pH 2.66; Thermal; DSC; glycine 0.05 M; reversible: yes; structure 1LZ1; whole UniProt chain shown
Variant,Tm [°C],heat capacity change of unfolding [kcal/mol/K],unfolding enthalpy (calorimetric) [kcal/mol],unfolding enthalpy (van 't Hoff) [kcal/mol]
I77A,59.1,1.2,106,114
I107A,55.4,1.39,93.1,98.1

# Same assay, conditions: Homo sapiens; pH 2.8; Thermal; DSC; glycine 0.05 M; reversible: yes; structure 1LZ1; whole UniProt chain shown
Variant,Tm [°C],heat capacity change of unfolding [kcal/mol/K],unfolding enthalpy (calorimetric) [kcal/mol],unfolding enthalpy (van 't Hoff) [kcal/mol]
I77A,61.5,1.2,110,115
I107A,57.7,1.08,97.8,103
I124A,64.1,0.98,104,111

# Same assay, conditions: Homo sapiens; pH 2.98; Thermal; DSC; glycine 0.05 M; reversible: yes; structure 1LZ1; whole UniProt chain shown
Variant,Tm [°C],heat capacity change of unfolding [kcal/mol/K],unfolding enthalpy (calorimetric) [kcal/mol],unfolding enthalpy (van 't Hoff) [kcal/mol]
I77A,64.5,1.63,115,120

# Same assay, conditions: Homo sapiens; pH 2.82; Thermal; DSC; glycine 0.05 M; reversible: yes; structure 1LZ1; whole UniProt chain shown
Variant,Tm [°C],heat capacity change of unfolding [kcal/mol/K],unfolding enthalpy (calorimetric) [kcal/mol],unfolding enthalpy (van 't Hoff) [kcal/mol]
I77G,54.6,0.65,94.7,97.6

# Same assay, conditions: Homo sapiens; pH 3.02; Thermal; DSC; glycine 0.05 M; reversible: yes; structure 1LZ1; whole UniProt chain shown
Variant,Tm [°C],heat capacity change of unfolding [kcal/mol/K],unfolding enthalpy (calorimetric) [kcal/mol],unfolding enthalpy (van 't Hoff) [kcal/mol]
I77G,59.2,0.86,98.6,100

# Same assay, conditions: Homo sapiens; pH 3.16; Thermal; DSC; glycine 0.05 M; reversible: yes; structure 1LZ1; whole UniProt chain shown
Variant,Tm [°C],heat capacity change of unfolding [kcal/mol/K],unfolding enthalpy (calorimetric) [kcal/mol],unfolding enthalpy (van 't Hoff) [kcal/mol]
I77G,60.4,0.81,100,102

# Same assay, conditions: Homo sapiens; pH 2.5; Thermal; DSC; glycine 0.05 M; reversible: yes; structure 1LZ1; whole UniProt chain shown
Variant,Tm [°C],heat capacity change of unfolding [kcal/mol/K],unfolding enthalpy (calorimetric) [kcal/mol],unfolding enthalpy (van 't Hoff) [kcal/mol]
I107A,52.6,1.72,89.5,95.5
I74A,48.2,1.22,82.8,84

# Same assay, conditions: Homo sapiens; pH 2.95; Thermal; DSC; glycine 0.05 M; reversible: yes; structure 1LZ1; whole UniProt chain shown
Variant,Tm [°C],heat capacity change of unfolding [kcal/mol/K],unfolding enthalpy (calorimetric) [kcal/mol],unfolding enthalpy (van 't Hoff) [kcal/mol]
I107A,61.1,1.67,103,108

# Same assay, conditions: Homo sapiens; pH 3.09; Thermal; DSC; glycine 0.05 M; reversible: yes; structure 1LZ1; whole UniProt chain shown
Variant,Tm [°C],heat capacity change of unfolding [kcal/mol/K],unfolding enthalpy (calorimetric) [kcal/mol],unfolding enthalpy (van 't Hoff) [kcal/mol]
I107A,62.9,1.51,106,110

# Same assay, conditions: Homo sapiens; pH 2.73; Thermal; DSC; glycine 0.05 M; reversible: yes; structure 1LZ1; whole UniProt chain shown
row,Variant,Tm [°C]
1,I74G,62.7

# Same assay, conditions: Homo sapiens; pH 2.81; Thermal; DSC; glycine 0.05 M; reversible: yes; structure 1LZ1; whole UniProt chain shown
Variant,Tm [°C],heat capacity change of unfolding [kcal/mol/K],unfolding enthalpy (calorimetric) [kcal/mol],unfolding enthalpy (van 't Hoff) [kcal/mol]
I74A,54.2,1.46,90.7,92.1

# Same assay, conditions: Homo sapiens; pH 3.08; Thermal; DSC; glycine 0.05 M; reversible: yes; structure 1LZ1; whole UniProt chain shown
Variant,Tm [°C],heat capacity change of unfolding [kcal/mol/K],unfolding enthalpy (calorimetric) [kcal/mol],unfolding enthalpy (van 't Hoff) [kcal/mol]
I74A,60.2,1.44,98.8,102

# Same assay, conditions: Homo sapiens; pH 2.51; Thermal; DSC; glycine 0.05 M; reversible: yes; structure 1LZ1; whole UniProt chain shown
Variant,Tm [°C],heat capacity change of unfolding [kcal/mol/K],unfolding enthalpy (calorimetric) [kcal/mol],unfolding enthalpy (van 't Hoff) [kcal/mol]
I124A,57.7,1.15,96.4,102

# Same assay, conditions: Homo sapiens; pH 3.1; Thermal; DSC; glycine 0.05 M; reversible: yes; structure 1LZ1; whole UniProt chain shown
Variant,Tm [°C],heat capacity change of unfolding [kcal/mol/K],unfolding enthalpy (calorimetric) [kcal/mol],unfolding enthalpy (van 't Hoff) [kcal/mol]
I124A,69.7,1.58,112,119
